# Experimental data: paper PMC3696110, “Hsp70 Oligomerization Is Mediated by an Interaction between the Interdomain Linker and the Substrate-Binding Domain” (PLoS ONE, 2013)
# “And” between values parts separate entries of the source, which are not always exact repeats. Identical values can stand only once.
# Key:
# [1] = Thermal denaturation monitored by far-UV CD; assay type: physicochemical, human
# Procedure: Protein structural stability was analyzed by monitoring the CD signal at 222 nm upon thermal denaturation. Thermal runs were performed from 5 to 90 °C at a rate of 1 °C. min^-1. Data points were acquired every 0.1 °C with a response time of 2 s and a bandwidth of […]. After thermal denaturation, each protein sample was cooled to the starting temperature, and a second denaturation curve recorded in order to analyse the degree of reversibility of the denaturation process. Analysis of the thermal unfolding curves was performed assuming a three-state unfolding model.
# [2] = nESI-MS relative populations of oligomeric forms; assay type: physicochemical, human; conditions: 150 mM ammonium acetate
# Procedure: Prior to MS analysis, samples were buffer exchanged into 150 mM ammonium acetate, pH 7.4, using Micro Bio-spin 6 columns (Bio-Rad, Digilab Division, Cambridge, MA, USA). For all the experiments protein concentrations ranging from 6 to 18 µM were used. In the case of the substrate binding experiments, proteins were analyzed in the presence of a 1: 1 molar ratio of the NR peptide; this substrate concentration, lower than in the SEC experiments, was chosen to ensure adequate resolution of the various charge state series, which is critical for unambiguous assignment of substrate-bound states. Due to suppression effects during nESI ionization, a relatively limited set of molar ratios could be investigated by in this way.
# nESI-MS spectra were obtained according to a previously published protocol on an orthogonal time-of-flight mass spectrometer with a Z-spray source (LCT, Waters, Manchester, UK) in positive ion mode using the following parameters: capillary voltage, 1500 V; sample cone voltage, 120 V (unless otherwise specified); extraction cone voltage, 1V; and ion transfer stage pressure, 8.8 mbar. Spectra were calibrated externally using a 33 mg/ml solution of cesium iodide. Data were acquired and processed with MassLynx software (Waters, Manchester, UK), and are shown with minimal smoothing and without background subtraction. The relative abundances of the different oligomeric states were estimated from the intensities of the most abundant charge states for each construct and are expressed as a percentage of the total intensity.
# [3] = 6-15 µM protein, pH 7.4, estimated error 5% (SD of 3-4 independent experiments)
substance,measurement,setting,value
"SBD641: truncated human Hsp70 (384-641), full-length SBD with interdomain linker","∆Hm, 1st transition","[1]; CD 222 nm, 20 µM protein, 7 mM Tris pH 7.4, 170 mM KCl, 5 mM MgCl2, three-state fit (C-term two-state), SE of fit",49.4 ± 3.3 kcal/mol
same,"∆Hm, 2nd transition","[1]; CD 222 nm, 20 µM protein, 7 mM Tris pH 7.4, 170 mM KCl, 5 mM MgCl2, three-state fit, SE of fit",53.3 ± 1.2 kcal/mol
same,"Tm, 1st transition","[1]; CD 222 nm, 5 to 90 °C at 1 °C/min, 20 µM protein, 7 mM Tris pH 7.4, 170 mM KCl, 5 mM MgCl2, three-state fit (C-term two-state), SE of fit",45.6 ± 0.4 °C
same,"Tm, 2nd transition","[1]; CD 222 nm, 5 to 90 °C at 1 °C/min, 20 µM protein, 7 mM Tris pH 7.4, 170 mM KCl, 5 mM MgCl2, three-state fit, SE of fit",73.1 ± 0.1 °C and 73.1 ± 0.2 °C
same,Degree of irreversibility of overall protein thermal denaturation,[1]; far-UV CD,ca. 20%
same,Reversibility of thermal unfolding,"[1]; far-UV CD, second denaturation curve after cooling",is not
same,Dimer population,[2]; [3],40%
same,Monomer population,[2]; [3],46%
same,Total oligomer population,[2]; [3],> 50% and 54%
same,Trimer population,[2]; [3],12%
same,Tetramer population,"[2]; low μM protein, pH 7.4",2%
